Consider four molecules from article doi:10.1101/332015 (bioRxiv, 2018).

Experiment [1] addresses full-length human ARC (ARC_(1-396)) (human) (UniProt Q7LC44). Put plainly: SEC-MALS. (In general: SEC sorts molecules by how far they enter the pores of the column.)
Experiment [2] concerns the target T1, ARC_(207-277) (human, UniProt Q7LC44 207-277).
T1 sequence (looked up): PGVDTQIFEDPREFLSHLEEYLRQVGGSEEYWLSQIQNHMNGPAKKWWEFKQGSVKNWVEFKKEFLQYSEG
Nature of the experiment: synchrotron radiation circular dichroism. Background: Circular dichroism is the unequal absorption of left and right circularly polarised light.

Experiment [3] deals with T2, ARC_(131-396) (human, UniProt Q7LC44 131-396).
T2 sequence (looked up): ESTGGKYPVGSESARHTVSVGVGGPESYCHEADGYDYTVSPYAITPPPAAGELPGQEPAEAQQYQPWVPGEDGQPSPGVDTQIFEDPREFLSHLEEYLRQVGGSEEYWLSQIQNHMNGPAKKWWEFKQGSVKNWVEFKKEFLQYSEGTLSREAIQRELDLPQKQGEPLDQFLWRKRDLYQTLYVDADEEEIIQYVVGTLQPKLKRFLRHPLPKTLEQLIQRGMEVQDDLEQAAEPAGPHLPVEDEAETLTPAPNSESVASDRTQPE
Nature of the experiment: SAXS.

Experiment [4] addresses T3, ARC_(170-396) (human, UniProt Q7LC44 170-396).
T3 sequence (looked up): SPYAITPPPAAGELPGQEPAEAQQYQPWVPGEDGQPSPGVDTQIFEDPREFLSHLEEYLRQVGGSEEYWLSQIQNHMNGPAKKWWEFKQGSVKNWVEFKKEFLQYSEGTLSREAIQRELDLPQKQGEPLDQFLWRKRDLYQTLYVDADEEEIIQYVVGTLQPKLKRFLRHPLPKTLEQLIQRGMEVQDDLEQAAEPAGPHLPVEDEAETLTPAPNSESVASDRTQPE
Nature of the experiment: SAXS.

In experiment [5] the target is T4, ARC_(206-396) (human, UniProt Q7LC44 206-396).
T4 sequence (looked up): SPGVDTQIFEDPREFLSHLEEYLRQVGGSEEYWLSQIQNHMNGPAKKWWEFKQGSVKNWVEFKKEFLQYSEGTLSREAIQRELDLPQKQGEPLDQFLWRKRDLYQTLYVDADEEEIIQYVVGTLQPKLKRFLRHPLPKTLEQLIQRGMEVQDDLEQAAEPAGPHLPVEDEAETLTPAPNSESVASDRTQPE
Put plainly: SAXS.

In experiment [6] the target is T5, ARC_(206-361) (human, UniProt Q7LC44 206-361).
T5 sequence (looked up): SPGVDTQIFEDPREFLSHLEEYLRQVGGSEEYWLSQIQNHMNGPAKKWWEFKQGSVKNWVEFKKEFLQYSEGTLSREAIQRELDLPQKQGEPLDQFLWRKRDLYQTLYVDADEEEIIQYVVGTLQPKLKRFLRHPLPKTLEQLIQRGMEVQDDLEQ
Nature of the experiment: SAXS.

The target of experiment [7] is T1, ARC_(207-277). Put plainly: SAXS.

Usually stoichiometry N stands for the number of molecules, sites or subunits per partner or assembly. Turning to “full-length human ARC (ARC_(1-396)) (from UniProt Q7LC44 1-396) (natural protein)”, the stoichiometry N in experiment [1] was determined as 2.

B1: Stargazin peptide (RIPSYRYR) (peptide)
peptide: Ac-RIPSYRYR-NH2
As to B1, the binding result in experiment [2], in experiment [3], in experiment [4], in experiment [5] and in experiment [6] was “binds” throughout.

B2: GKAP peptide (TSPKFRSR) (peptide)
peptide: Ac-TSPKFRSR-NH2
Consider B2, for which the binding result in experiment [3], in experiment [4], in experiment [5], in experiment [6] and in experiment [7] was “binds” throughout.

B3: WAVE1 peptide (RTPVFVSP) (peptide)
peptide: Ac-RTPVFVSP-NH2
As to B3, the binding result in experiment [3], in experiment [4], in experiment [5], in experiment [6] and in experiment [7] was “binds” throughout.
